From publication doi:10.1101/826115

Molecular target: Respiratory complex I (mouse (endogenous in mouse tissues and L929 cells)) (UniProt Q9DC69)
Test: Blue-DiS complexome profiling

Sequence of UniProt Q9DC69 (Q9DC69 whole entry, looked up, one chain of several): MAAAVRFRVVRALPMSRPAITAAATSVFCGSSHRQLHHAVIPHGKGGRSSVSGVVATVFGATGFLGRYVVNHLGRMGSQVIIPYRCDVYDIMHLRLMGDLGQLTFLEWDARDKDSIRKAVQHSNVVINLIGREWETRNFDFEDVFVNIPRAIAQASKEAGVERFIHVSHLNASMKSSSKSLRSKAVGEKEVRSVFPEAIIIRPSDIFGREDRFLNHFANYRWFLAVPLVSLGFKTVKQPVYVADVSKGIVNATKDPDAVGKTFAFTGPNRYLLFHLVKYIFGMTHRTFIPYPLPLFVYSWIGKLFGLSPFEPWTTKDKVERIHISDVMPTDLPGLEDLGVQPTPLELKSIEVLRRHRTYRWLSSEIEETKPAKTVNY

Substance | stoichiometry N
Respiratory complex IV (from UniProt P00397 1-514) | 1 CI:CIV
Respiratory complex III dimer (from UniProt Q9DB77 15-453) | 2 CIII:CI
